In US20140031283A1, “ANTICANCER FUSION PROTEIN” (ADAMED SP. Z O.O., priority 2011, published 2014):

Tests used:
[1] = tested on: TRAIL sensitive cell lines; experiment: in vitro cytotoxicity tests, TRAIL sensitive cell lines; type: cell-based; settings: continuous incubation over 72 h, test MTT; versus rhTRAIL 95-281 (cell line not given)
Text: MTT assay is a colorimetric assay used to measure proliferation, viability and cytotoxicity of cells. It consists in decomposition of a yellow tetrazolium salt MTT (4,5-dimethyl-2-thiazolyl)-2,5-diphenyltetrazolium bromide) to the water-insoluble purple dye formazan by mitochondrial enzyme succinate-tetrazolium reductase 1. MTT reduction occurs only in living cells. Data analysis consists in determining IC50 concentration of the protein (in ng/ml), at which the 50% reduction in the number of cells occurs in the population treated compared to control cells. Results were analyzed using GraphPad Prism 5.0 software. The test was performed according to the literature descriptions (Cells, J E, (1998). Cell Biology, a Laboratory Handbook, second edition, Academic Press, San Diego; Yang, Y., Koh, L W, Tsai, J H., (2004); Involvement of viral and chemical factors with oral cancer in Taiwan, Jpn J Clin Oncol, 34 (4), 176-183). Cell culture medium was diluted to a defined density (10^4-10^5 cells per 100 μl). Then 100 μl of appropriately diluted cell suspension was applied to a 96-well plate in triplicates. Thus prepared cells were incubated for 24 h at 37° C. in 5% or 10% CO2, depending on the medium used, and then to the cells (in 100 μl of medium) further 100 μl of the medium containing various concentrations of tested proteins were added. In the case of combination hTRAIL114-281 and p21WAF effector protein, 100 μl of the medium containing mixture of hTRAIL114-281 and p21WAF effector protein in molar ratio 1:1 was added. After incubation of the cells with tested proteins over the period of next 72 hours, which is equivalent to 3-4 times of cell division, the medium with the test protein was added with […] of MTT working solution [5 mg/ml], and incubation was continued for 3 h at 37° C. in 5% CO2. Then the medium with MTT solution was removed, and formazan crystals were dissolved by adding 100 μl of DMSO. After stirring, the absorbance was measured at 570 nm (reference filter 690 nm). […]

MES-SA/Dx5 = experiment: MTT cytotoxicity test, MES-SA/Dx5 (multidrug-resistant human uterine sarcoma); type: cell-based; settings: for MES-SA/Dx5 IC50: continuous incubation over 72 h, test MTT; for MES-SA/Dx5 mean (IC50): Table 4, mean/SD part
Text: (§1) MTT assay is a colorimetric assay used to measure proliferation, viability and cytotoxicity of cells. It consists in decomposition of a yellow tetrazolium salt MTT (4,5-dimethyl-2-thiazolyl)-2,5-diphenyltetrazolium bromide) to the water-insoluble purple dye formazan by mitochondrial enzyme succinate-tetrazolium reductase 1. MTT reduction occurs only in living cells. Data analysis consists in determining IC50 concentration of the protein (in ng/ml), at which the 50% reduction in the number of cells occurs in the population treated compared to control cells. Results were analyzed using GraphPad Prism 5.0 software. The test was performed according to the literature descriptions (Cells, J E, (1998). Cell Biology, a Laboratory Handbook, second edition, Academic Press, San Diego; Yang, Y., Koh, L W, Tsai, J H., (2004); Involvement of viral and chemical factors with oral cancer in Taiwan, Jpn J Clin Oncol, 34 (4), 176-183). Cell culture medium was diluted to a defined density (10^4-10^5 cells per 100 μl). Then 100 μl of appropriately diluted cell suspension was applied to a 96-well plate in triplicates. Thus prepared cells were incubated for 24 h at 37° C. in 5% or 10% CO2, depending on the medium used, and then to the cells (in 100 μl of medium) further 100 μl of the medium containing various concentrations of tested proteins were added. In the case of combination hTRAIL114-281 and p21WAF effector protein, 100 μl of the medium containing mixture of hTRAIL114-281 and p21WAF effector protein in molar ratio 1:1 was added. After incubation of the cells with tested proteins over the period of next 72 hours, which is equivalent to 3-4 times of cell division, the medium with the test protein was added with […] of MTT working solution [5 mg/ml], and incubation was continued for 3 h at 37° C. in 5% CO2. Then the medium with MTT solution was removed, and formazan crystals were dissolved by adding 100 μl of DMSO. After stirring, the absorbance was measured at 570 nm (reference filter 690 nm).
(§2) The results of in vitro cytotoxicity tests are summarized as IC50 values (ng/ml), which corresponds to the protein concentration at which the cytotoxic effect of fusion proteins is observed at the level of 50% with respect to control cells treated only with solvent. Each experiment represents the average value of at least two independent experiments performed in triplicates. As a criterion of lack of activity of protein preparations the IC50 limit of 2000 ng/ml was adopted.
Cells selected for this test included tumor cell lines that are naturally resistant to TRAIL protein (the criterion of natural resistance to TRAIL: IC50 for TRAIL protein >2000), as well as tumor cell lines sensitive to TRAIL protein and resistant to doxorubicin line MES-SA/DX5 as a cancer line resistant to conventional anticancer medicaments.

A549 = experiment: MTT cytotoxicity test, A549 (human lung cancer); type: cell-based; settings: for A549 IC50: continuous incubation over 72 h, test MTT; for A549 mean (IC50): Table 4, mean/SD part
Text: as §1, §2

HCT-116 = settings: for HCT116 IC50: continuous incubation over 72 h, test MTT; for HCT116 mean (IC50): Table 4, mean/SD part
Description: Data analysis consists in determining IC50 concentration of the protein (in ng/ml), at which the 50% reduction in the number of cells occurs in the population treated compared to control cells. Results were analyzed using GraphPad Prism 5.0 software. […] Cell culture medium was diluted to a defined density (10^4-10^5 cells per 100 μl). Then 100 μl of appropriately diluted cell suspension was applied to a 96-well plate in triplicates. Thus prepared cells were incubated for 24 h at 37° C. in 5% or 10% CO2, depending on the medium used, and then to the cells (in 100 μl of medium) further 100 μl of the medium containing various concentrations of tested proteins were added. […] After incubation of the cells with tested proteins over the period of next 72 hours, which is equivalent to 3-4 times of cell division, the medium with the test protein was added with 20 ml of MTT working solution [5 mg/ml], and incubation was continued for 3 h at 37° C. in 5% CO2. Then the medium with MTT solution was removed, and formazan crystals were dissolved by adding 100 μl of DMSO. After stirring, the absorbance was measured at 570 nm (reference filter 690 nm).

MES-SA = experiment: MTT cytotoxicity test, MES-SA (human uterine sarcoma); type: cell-based; settings: for MES-SA IC50: continuous incubation over 72 h, test MTT; for MES-SA mean (IC50): Table 4, mean/SD part
Text: as §1, §2

MCF10A = experiment: MTT cytotoxicity test, MCF10A (mammary epithelial cells); type: cell-based; settings: for MCF10A IC50: continuous incubation over 72 h, test MTT; for MCF10A mean (IC50): Table 4, mean/SD part
Text: as §1, §2

SK-MES-1 = experiment: MTT cytotoxicity test, SK-MES-1 (human lung cancer); type: cell-based; settings: for SK-MES-1 IC50: continuous incubation over 72 h, test MTT; for SK-MES-1 mean (IC50): Table 4, mean/SD part
Text: as §1, §2

Molecule | IC50 [1] | MES-SA/Dx5 IC50 (MES-SA/Dx5) | A549 IC50 (A549) | HCT116 IC50 (HCT-116) | MES-SA IC50 (MES-SA) | MCF10A IC50 (MCF10A) | SK-MES-1 IC50 (SK-MES-1) | MES-SA/Dx5 mean (IC50) (MES-SA/Dx5) | A549 mean (IC50) (A549) | HCT116 mean (IC50) (HCT-116) | MES-SA mean (IC50) (MES-SA) | MCF10A mean (IC50) (MCF10A) | SK-MES-1 mean (IC50) (SK-MES-1)
Ex. 11: fusion protein: 18-amino acid peptide DD2 from DOC-2/DAB2 with 7 Arg transporting domain at C-terminus of TRAIL95-281, MMP and uPA sites (protein, synthesized, a fusion protein comprising: a fragment of TRAIL protein, a fragment of peptide DD2 derived from DOC-2/DAB2, cleavage sites recognized by uPA and MMP, an arginine transporting domain and a cysteine-alanine-glycine steric linker., fusion protein: 18-amino acid peptide DD2 from DOC-2/DAB2 with 7 Arg transporting domain at C-terminus of TRAIL95-281, MMP and uPA sites) TSEETISTVQEKQQNISPLVRERGPQRVAAHITGTRGRSNTLSSPNSKNEKALGRKINSWESSRSGHSFLSNLHLRNGELVIHEKGFYYIYSQTYFRFQEEIKENTKNDKQMVQYIYKYTSYPDPILLMKSARNSCWSKDAEYGLYSIYQGGIFELKENDRIFVSVTNEHLIDMDHEASFFGAFLVGCAACAAACGGGPLGLAGRVVRRRRRRRRGGGFQLRQPPLVPSRKGE | 0.063 µg/mL | 0.00885 µg/mL | 0.257 µg/mL | 0.08429 µg/mL | 0.1044 µg/mL | 0.1333 µg/mL | 0.03348 µg/mL | – | – | – | – | – | –
Ex. 7: fusion protein: 8-amino acid fragment of human fetoprotein at C-terminus of TRAIL95-281, cysteine-alanine linker, MMP and uPA cleavage sites (protein, synthesized, a fusion protein comprising: a fragment of TRAIL protein, a fragment of human fetoprotein, cleavage sites recognized by uPA and MMP and a flexible cysteine - alanine linker., fusion protein: 8-amino acid fragment of human fetoprotein at C-terminus of TRAIL95-281, cysteine-alanine linker, MMP and uPA cleavage sites) TSEETISTVQEKQQNISPLVRERGPQRVAAHITGTRGRSNTLSSPNSKNEKALGRKINSWESSRSGHSFLSNLHLRNGELVIHEKGFYYIYSQTYFRFQEEIKENTKNDKQMVQYIYKYTSYPDPILLMKSARNSCWSKDAEYGLYSIYQGGIFELKENDRIFVSVTNEHLIDMDHEASFFGAFLVGCAACAAACPLGLAGRVVREMTPVNPG | 0.105 µg/mL | 0.02211 µg/mL | >2 µg/mL | 0.0635 µg/mL | >2 µg/mL | >2 µg/mL | 0.0366 µg/mL | – | – | – | – | – | –
Ex. 16: fusion protein: hexapeptide inhibitor of E2F with antennapedia sequence at N-terminus of TRAIL121-281, uPA and MMP sites (protein, synthesized, a fusion protein comprising: a fragment of TRAIL protein, a peptide inhibitor of E2F, cleavage sites recognized by urokinase uPA and metalloprotease MMP and an antennapedia transporting domain.) FWLRFTKPRRPYRVVRPLGLAGRVAAHITGTRGRSNTLSSPNSKNEKALGRKINSWESSRSGHSFLSNLHLRNGELVIHEKGFYYIYSQTYFRFQEEIKENTKNDKQMVQYIYKYTSYPDPILLMKSARNSCWSKDAEYGLYSIYQGGIFELKENDRIFVSVTNEHLIDMDHEASFFGAFLVG | – | – | – | – | – | – | – | 0.001421 µg/mL | 0.04285 µg/mL | 0.01585 µg/mL | 0.00846 µg/mL | 0.09228 µg/mL | 0.003045 µg/mL
Ex. 15: fusion protein: 15-amino acid fragment of PH domain of TCL1 protein with antennapedia sequence at C-terminus of TRAIL121-281, MMP and uPA sites (protein, synthesized, a fusion protein comprising: a fragment of TRAIL protein, a fragment of PH domain of TCL1 protein - acting as Akt coactivator, cleavage sites recognized by uPA and MMP, an antennapedia transporting domain and a glycine-cysteine linker.) RVAAHITGTRGRSNTLSSPNSKNEKALGRKINSWESSRSGHSFLSNLHLRNGELVIHEKGFYYIYSQTYFRFQEEIKENTKNDKQMVQYIYKYTSYPDPILLMKSARNSCWSKDAEYGLYSIYQGGIFELKENDRIFVSVTNEHLIDMDHEASFFGAFLVGGSPLGLAGRVVRDRQIKIWFQNRRMKWKKAVTDHPDRLWAWEKF | – | – | – | – | – | – | – | 0.3289 µg/mL | 1 µg/mL | 0.6035 µg/mL | 0.123 µg/mL | 1 µg/mL | 0.0784 µg/mL
Ex. 4: fusion protein: 34-amino acid fragment of human fetoprotein at C-terminus of TRAIL121-281, MMP and uPA cleavage sites (protein, synthesized, a fusion protein comprising: a fragment of TRAIL protein, a fragment of human fetoprotein and cleavage sites recognized by uPA and MMP., fusion protein: 34-amino acid fragment of human fetoprotein at C-terminus of TRAIL121-281, MMP and uPA cleavage sites) RVAAHITGTRGRSNTLSSPNSKNEKALGRKINSWESSRSGHSFLSNLHLRNGELVIHEKGFYYIYSQTYFRFQEEIKENTKNDKQMVQYIYKYTSYPDPILLMKSARNSCWSKDAEYGLYSIYQGGIFELKENDRIFVSVTNEHLIDMDHEASFFGAFLVGPLGLAGRVVRLSEDKLLACGEGAADIIIGHLCIRHEMTPVNPG | – | 0.01136 µg/mL | >2 µg/mL | 0.03225 µg/mL | 0.2053 µg/mL | >2 µg/mL | 0.01011 µg/mL | – | – | – | – | – | –
Ex. 5: fusion protein: 34-amino acid fragment of human fetoprotein at N-terminus of TRAIL95-281, uPA and MMP cleavage sites (protein, synthesized, a fusion protein comprising: a fragment of TRAIL protein, a fragment of human fetoprotein and cleavage sites recognized by uPA and MMP., fusion protein: 34-amino acid fragment of human fetoprotein at N-terminus of TRAIL95-281, uPA and MMP cleavage sites) LSEDKLLACGEGAADIIIGHLCIRHEMTPVNPGRVVRPLGLAGTSEETISTVQEKQQNISPLVRERGPQRVAAHITGTRGRSNTLSSPNSKNEKALGRKINSWESSRSGHSFLSNLHLRNGELVIHEKGFYYIYSQTYFRFQEEIKENTKNDKQMVQYIYKYTSYPDPILLMKSARNSCWSKDAEYGLYSIYQGGIFELKENDRIFVSVTNEHLIDMDHEASFFGAFLVG | – | – | – | – | – | – | – | 0.01116 µg/mL | 3 µg/mL | 0.1798 µg/mL | 0.095 µg/mL | 8.949 µg/mL | 0.07965 µg/mL
